{
  "source": "patent US20220288216A1",
  "about": "(STARPHARMA, published 2022)",
  "binders": {"B1": {"name": "Nanobody-PEG2-TCO-MePhTz-PEG4-PEG24-CO[N(PN)2][Lys]8[(α-NH-Cy5)1(α-NH-Glu-VC-PAB-MMAE)7(ε-NH-COPEG1100)8], Compound 41 (VHH)", "VHH": "EVQLVESGGSLVQPGGSLRLSCAASGFTFDDYAMSWVRQVPGKGLEWVSSINWSGTHTDYADSVKGRFTISRNNANNTLYLQMNSLKSEDTAVYYCAKNWRDAGTTWFEKSGSAGQGTQVTVSS", "modifications": "C-terminal unnatural amino acid (# in the printed sequence; p-azido-phenylalanine) clicked to DBCO-PEG12-TCO and through it to the tetrazine G3 lysine dendrimer carrying Cy5, Glu-VC-PAB-MMAE and PEG1100", "notes": "Anti-HER2 nanobody 2D3 conjugated to a G3 dendrimer; also called compound 41 (targeted); targeted dendrimer"}, "B2": {"name": "BHA[Lys]32[((α-NH-COPEG24NH-COPEG4(PhMeTz) TCO-PEG3NH-COPEG24NH-Glu-DBCO/N3-Nanobody)1-4(α-NHCy5)1(α-NH-COPEG9-Val-Ala-PAB-P-Trigger-NMeCO-CTX)22) (α-NH2)5-8 … (VHH)", "VHH": "B1 VHH", "modifications": "unnatural amino acid (# in the printed sequence; p-azido-phenylalanine) after the last nanobody residue clicked to DBCO-Glu-NHPEG24CO-NHPEG3-TCO and through it to the tetrazine G5 BHA-lysine dendrimer carrying Cy5, cabazitaxel and PEG1100", "notes": "1-4 nanobodies per dendrimer as printed; also called compound 78 (targeted); 78 (2D3, G5, PEG1000, CTX)"}, "B3": {"name": "BHA[Lys]8[((α-NH-COPEG24NH-COPEG4(PhMeTz) TCO-PEG3NH-COPEG24NH-Glu-DBCO/N3-Nanobody)1(α-Lys(α-NHCy5)(ε-NHDFO))1(α-NH2)6)(ε-NH-COPEG1000)8], G3, Compound 89 (VHH)", "VHH": "B1 VHH", "modifications": "unnatural amino acid (#; p-azido-phenylalanine) clicked to DBCO-Glu-NHPEG24CO-NHPEG3-TCO and through it to the tetrazine G3 BHA-lysine dendrimer carrying Cy5, DFO and PEG1000", "notes": "Single-nanobody G3 conjugate; also called BHA-G3-PEG1000 + NB"}, "B4": {"name": "BHA[Lys]16[((α-NH-COPEG24NH-COPEG4(PhMeTz) TCO-PEG3NH-COPEG24NH-Glu-DBCO/N3-Nanobody)1(α-Lys(α-NHCy5)(ε-NHDFO))1(α-NH2)14(ε-NH-COPEG1000)16], G4, Compound 90 (VHH)", "VHH": "B1 VHH", "modifications": "unnatural amino acid (#; p-azido-phenylalanine) clicked to DBCO-Glu-NHPEG24CO-NHPEG3-TCO and through it to the tetrazine G4 BHA-lysine dendrimer carrying Cy5, DFO and PEG1000", "notes": "Single-nanobody G4 conjugate; also called single 2D3-dendrimer conjugate; MFI Single"}, "B5": {"name": "BHA[Lys]32[((α-NH-COPEG24NH-COPEG4(PhMeTz) TCO-PEG3NH-COPEG24NH-Glu-DBCO/N3-Nanobody)1(α-Lys(α-NHCy5)(ε-NHDFO))1(α-NH2)30(ε-NH-COPEG1100)32], G5, Compound 92 (VHH)", "VHH": "B1 VHH", "modifications": "unnatural amino acid (#; p-azido-phenylalanine) clicked to DBCO-Glu-NHPEG24CO-NHPEG3-TCO and through it to the tetrazine G5 BHA-lysine dendrimer carrying Cy5, DFO and PEG", "notes": "Single-nanobody G5 conjugate; also called BHA-G5-PEG1000 + NB"}, "B6": {"name": "BHA[Lys]4[((α-NH-COPEG24NH-COPEG4(PhMeTz) TCO-PEG3NH-COPEG24NH-Glu-DBCO N3-Nanobody)1(α-Lys(α-NHCy5)(ε-NHDFO))1(α-NH2)2)(ε-NH-COPEG1000)4, G2, Compound 86 (VHH)", "VHH": "B1 VHH", "modifications": "unnatural amino acid (#; p-azido-phenylalanine) clicked to DBCO-Glu-NHPEG24CO-NHPEG3-TCO and through it to the tetrazine G2 BHA-lysine dendrimer carrying Cy5, DFO and PEG1000", "notes": "Single-nanobody G2 conjugate; also called BHA-G2-PEG1000 + NB"}},
  "key": {"[1]": {"molecular_target": "T1, HER2 (human epidermal growth factor receptor 2) on cells (human, UniProt P04626 23-1255)", "T1 construct": "whole, on cells; One molecule for HER2 on all HER2-positive human cell lines; also called ERBB2; HER2 WT", "experiment": "flow cytometry (Cy5), MDA-MB-231/HER2 cells, 3.33 nM, 37 C, 24 h"}, "[2]": {"molecular_target": "T1, HER2 (human epidermal growth factor …)", "experiment": "flow cytometry (Cy5), SKOV-3 cells, 3.33 nM, 37 C, 24 h"}, "[3]": {"molecular_target": "T1, HER2 (human epidermal growth factor …)", "experiment": "flow cytometry (Cy5), MDA-MB-231/HER2 cells, 0.5 h"}},
  "data": [
    {"binder": "B1", "values": [
      {"measurement": "fold fluorescence against compound 36 (untargeted control)", "setting": "[1]", "result": "~9", "unit": "fold"},
      {"measurement": "fold fluorescence against compound 36 (untargeted control)", "setting": "[2]", "result": "~16", "unit": "fold"}
    ]},
    {"binder": "B2", "values": [
      {"measurement": "fold fluorescence against compound 70 (untargeted control)", "setting": "[1]", "result": "~340", "unit": "fold"},
      {"measurement": "fold fluorescence against compound 70 (untargeted control)", "setting": "[2]", "result": "~160", "unit": "fold"}
    ]},
    {"binder": "B3", "values": [
      {"measurement": "cellular association value (legend says percent; value exceeds 100, unit unclear)", "setting": "[3]", "result": 218}
    ]},
    {"binder": "B4", "values": [
      {"measurement": "cellular association value (legend says percent; value exceeds 100, unit unclear)", "setting": "[3]", "result": 157}
    ]},
    {"binder": "B5", "values": [
      {"measurement": "cellular association value (legend says percent; value exceeds 100, unit unclear)", "setting": "[3]", "result": 165}
    ]},
    {"binder": "B6", "values": [
      {"measurement": "cellular association value (legend says percent; value exceeds 100, unit unclear)", "setting": "[3]", "result": 190}
    ]}
  ]
}
